The results in this text go back to publication PMC2886027.

The target of the data set is T1, DraTopIB (Deinococcus radiodurans, UniProt Q9RWH8 1-346).
T1 sequence: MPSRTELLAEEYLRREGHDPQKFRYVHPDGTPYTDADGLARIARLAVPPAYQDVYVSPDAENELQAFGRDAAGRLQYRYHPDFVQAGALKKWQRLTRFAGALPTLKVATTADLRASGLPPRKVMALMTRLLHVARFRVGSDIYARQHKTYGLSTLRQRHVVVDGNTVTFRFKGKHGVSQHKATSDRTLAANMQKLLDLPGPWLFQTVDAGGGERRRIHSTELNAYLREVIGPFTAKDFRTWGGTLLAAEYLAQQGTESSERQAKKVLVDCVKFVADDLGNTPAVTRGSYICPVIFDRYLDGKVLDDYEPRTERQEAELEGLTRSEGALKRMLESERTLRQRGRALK
In words: crystal structure.

B1: 12-bp duplex (dsDNA)
DNA 1: GAATAAGGGCGC
DNA 2: GCGCCCTTATTC
With B1, the binding result was “binds”.
